From publication PMC11319775 come the findings set out here.

Data set [1] deals with T1, TaHRP1:GST (UniProt A0A3B6H0D8 1-141).
T1 sequence: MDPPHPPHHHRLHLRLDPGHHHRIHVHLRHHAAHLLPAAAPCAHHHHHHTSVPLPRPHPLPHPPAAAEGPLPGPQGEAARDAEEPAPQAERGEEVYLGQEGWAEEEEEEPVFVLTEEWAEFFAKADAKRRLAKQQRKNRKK
The data set can be described thus: EMSA. On the technique in general: In EMSA bound probe runs differently from free probe, usually more slowly.

Data set [2] concerns the target T1, TaHRP1:GST. As to the kind of experiment: EMSA. The source holds these as a separate data set.

Like-named read-outs stand apart in the source and are kept apart here.

B1: Probe-DNA (HBS promoter probe) (dsDNA)
DNA 1: AAAACCAAAATAACTAGTTAAAGAAGAATGAAAGAGTTAAATTCCATTTATTTTT
DNA 2: AAAAATAAATGGAATTTAACTCTTTCATTCTTCTTTAACTAGTTATTTTGGTTTT
Regarding B1, the binding result with TaHRP1:GST [1] is on record as “binds”.

B2: mProbe-DNA (HBS mutated) (dsDNA)
DNA 1: AAAACCAAAATAACTAGTTAGGCGGCGGTGAAAGAGTTAAATTCCATTTATTTTT
DNA 2: AAAAATAAATGGAATTTAACTCTTTCACCGCCGCCTAACTAGTTATTTTGGTTTT
With B2, the binding result in the data set with TaHRP1:GST [2] is “no binding”.
